{"source": "patent US20120308566A1", "about": "(published 2012)", "binders": {"B1": {"name": "AMH18/AML18 (antibody, IgG2, V domains shown)", "VH": "QVQLVQSGAEVKKPGASVKVSCKASGYSFTDYYMHWVRQAPGQGLEWMGWMHPNSGGTDLAQRFQGRVTMTRDTSISTAYMELSRLRSDDTAVYYCARGGYCSTLSCSFYWYFDLWGRGTLVTVSS", "VL": "not shown", "notes": "human monoclonal antibody from IgG2 XenoMouse mice; also called AM-18"}, "B2": {"name": "AMH17/AML17 (antibody, V domains shown)", "VH": "QVQLVQSGAEVKKPGAAVKVSCKATGYTLTSYGISWVRQAPGQGLEWMGWISAYSGNTKYAQKLQGRVTMTTDTSTSTAYMELRSLRSDDTAVYYCARKQLVFDYWGQGTLVTVSS", "VL": "not shown"}, "B3": {"name": "AMH12/AML12 (antibody, IgG2, V domains shown)", "VH": "B2 VH with A17S, T25S, A53T, S55K, K59N", "VL": "EIVMTQSPATLSVSPGERATLSCRASQSISSSLAWYQQKPGQAPRLLIYGASTRATGIPARFSGSGSGTEFTLTISSLQSENFAVYYCQQYDNWPLTFGGGTKVEIK"}, "B4": {"name": "AMH16/AML16 (antibody, IgG2, V domains shown)", "VH": "B2 VH with A17S, T25S, L29F, S55N, A79V", "VL": "B3 VL with S31T, A51T, N82D, Y87F, N93I"}, "B5": {"name": "AMH19/AML19 (antibody, IgG2, V domains shown)", "VH": "B2 VH with A17S, T25S, L64F, K99R, V102A, F103L", "VL": "B3 VL with S32N, G64D, S65N, N82D, Y87F, N93T"}, "B6": {"name": "AMH7/AML7 (antibody, IgG2, V domains shown)", "VH": "QVQLVQSGAEVKKPGASVKVSCKASGYTLTRYGISWVRQAPGQGLEWMGWISAYNGNTNYAQKLQGRVTMTTDTSTSTAYMELRSLRSDDTAVYYCARRDYDILTGYYNGFDPWGQGTLVTVSS", "VL": "DIQMTQSPSSLSASVGDRVTITCRASQGIRNDLGWYQQKPGKAPKRLIYAASSLQSGVPSRFSGSGSGTEFTLTISSLQPEDFATYYCLQHKSYPLTFGGGTKVEIK", "notes": "human monoclonal antibody from IgG2 XenoMouse mice; also called AM-7"}, "B7": {"name": "AMH6/AML6 (antibody, IgG2, V domains shown)", "VH": "B6 VH", "VL": "B6 VL", "notes": "human monoclonal antibody from IgG2 XenoMouse mice; also called AM-6"}, "B8": {"name": "AMH8/AML8 (antibody, IgG2, V domains shown)", "VH": "B6 VH with Y27N, L29F, R31G, K63N", "VL": "B6 VL", "notes": "human monoclonal antibody from IgG2 XenoMouse mice; also called AM-8"}, "B9": {"name": "AMH10/AML10 (antibody, IgG2, V domains shown)", "VH": "QVQLQESGPGLVKPSQTLSLTCTVSGGSISSGGYYWSWIRQHPGKGLEWIGYIYFSGSAYYNPSLKSRVAISVDTSKNQFSLKLSSVTAADTAVYYCAREYYDSSGYPDAFDIWGQGTMVTVSS", "VL": "DIQMTQSPSSVSASVGDRVTITCRASQGIRSWLAWYQQKPGKAPKLLIFAASSLQSGVPSRFSGSGSGTEFTLTISSLQPEDFATYYCQQANNFPRTFGQGTKVEIK", "notes": "human monoclonal antibody from IgG2 XenoMouse mice; also called AM-10"}, "B10": {"name": "AMH13/AML13 (antibody, IgG2, V domains shown)", "VH": "QVQLVESGGGVVQPGRSLRLSCAASGFTFSSYGMQWVRQAPGKGLEWVAVIWYDGNKKYYADSVKGRFTISRDNSKNTLYLQMNSLRAEDTAVYYCARGRVRDYYYGMDVWGQGTTVTVSS", "VL": "DIVMTQTPLSLSVTPGQPASIACKSSQSLLHSDGKTYLYWYLQKPGQPPQLLIYEVSTRFSGVPDRFSGSGSGTDFTLKISRVEAEDVGVFYCMQSIQLPLTFGGGTKVEIK"}, "B11": {"name": "AMH4/AML4 (antibody, IgG2, V domains shown)", "VH": "QVQLVESGGGVVQPGRSLRLSCAASGINFSSYGMHWVRQAPGKGLEWVAVIWYDGSNKHYADSVKGRFTISRDNSKNTLYLQMNSLRAEDTAVYYCARDTGVYWGQGTLVTVSS", "VL": "not shown", "notes": "human monoclonal antibody from IgG2 XenoMouse mice; also called AM-4"}, "B12": {"name": "AMH21/AML21 (antibody, IgG2, V domains shown)", "VH": "EVQLVESGGGSVQPGGSLRLSCAASGFTFSSYSMNWVRQAPGKGLEWVSIISSRSSIIHYADSVKGRFTISRDNAKNSLYLQMNSLRDEDTAVYYCARPKVGGGMDVWGQGTTVTVSS", "VL": "DIQMTQSPSSLSASVGDRVTITCRASQGISNYLAWYQQKPGKFPELLIYAASTLQSGVPSRFSGSGSGTDFTLTISSLQPEDVATYYCQKYNRAPFTFGPGTKVDIK"}, "B13": {"name": "AMH20/AML20 (antibody, IgG2, V domains shown)", "VH": "B12 VH with S11L, I50F, S53A, I57T, H59Y", "VL": "B12 VL"}}, "key": {"[1]": {"target": "Human IL-17RA full-length expressed on the surface of cells (human, UniProt Q96F46 33-866)", "experiment": "cell-based or functional assay"}, "[2]": {"target": "T1, chimera L", "T1 construct": "also called Construct L; B+F", "experiment": "Bio-Plex titration on His-captured chimera; bold cell = binding criterion not met"}, "[3]": {"target": "T2, huIL-17RA-FLAG-polyHis (human, UniProt Q96F46 33-320)", "T2 construct": "also called wild-type IL-17RA-FLAG-polyHis; HuIL-17RA-Flag-pHis", "experiment": "multiplexed Luminex binning"}}, "note": "Changes are numbered by the printed parent chain."}
{"binder": "B1", "values": [{"measurement": "IL-17A/HFF bioassay IC50; 14. Subclone of (AMH18/AML18)", "setting": "[1]", "result": 0.44, "unit": "nM"}, {"measurement": "IL-17A/HFF bioassay IC50; 15. Subclone of (AMH18/AML18)", "setting": "[1]", "result": 0.4, "unit": "nM"}, {"measurement": "IL-17A/HFF bioassay IC50; 16. Subclone of (AMH18/AML18)", "setting": "[1]", "result": 0.17, "unit": "nM"}, {"measurement": "EC50 entry; zero = binding ablated", "setting": "[2]", "result": 0, "unit": "µM"}]}
{"binder": "B2", "values": [{"measurement": "IL-17A/HFF bioassay IC50; 21. Subclone of (AMH17/AML17)", "setting": "[1]", "result": 2.5, "unit": "nM"}, {"measurement": "IL-17A/HFF bioassay IC50; 22. Subclone of (AMH17/AML17)", "setting": "[1]", "result": 5.3, "unit": "nM"}, {"measurement": "IL-17A/HFF bioassay IC50; 23. Subclone of (AMH17/AML17)", "setting": "[1]", "result": 0.57, "unit": "nM"}]}
{"binder": "B3", "values": [{"measurement": "IL-17A/HFF bioassay IC50; 17. Subclone of (AMH12/AML12)", "setting": "[1]", "result": 3.5, "unit": "nM"}, {"measurement": "IL-17A/HFF bioassay IC50; 18. Subclone of (AMH12/AML12)", "setting": "[1]", "result": 3.7, "unit": "nM"}, {"measurement": "IL-17A/HFF bioassay IC50; 20. Subclone of (AMH12/AML12)", "setting": "[1]", "result": 5.5, "unit": "nM"}]}
{"binder": "B4", "values": [{"measurement": "IL-17A/HFF bioassay IC50; 24. Subclone of (AMH16/AML16)", "setting": "[1]", "result": 1.6, "unit": "nM"}, {"measurement": "IL-17A/HFF bioassay IC50; 25. Subclone of (AMH16/AML16)", "setting": "[1]", "result": 2.3, "unit": "nM"}, {"measurement": "IL-17A/HFF bioassay IC50; 26. Subclone of (AMH16/AML16)", "setting": "[1]", "result": 1.4, "unit": "nM"}]}
{"binder": "B5", "values": [{"measurement": "IL-17A/HFF bioassay IC50; 10. Subclone of (AMH19/AML19)", "setting": "[1]", "result": 0.22, "unit": "nM"}, {"measurement": "IL-17A/HFF bioassay IC50; 11. Subclone of (AMH19/AML19)", "setting": "[1]", "result": 1.1, "unit": "nM"}, {"measurement": "IL-17A/HFF bioassay IC50; 12. Subclone of (AMH19/AML19)", "setting": "[1]", "result": 0.5, "unit": "nM"}]}
{"binder": "B6", "values": [{"measurement": "binding result", "setting": "[3]", "result": "binds"}]}
{"binder": "B7", "values": [{"measurement": "binding result", "setting": "[3]", "result": "binds"}]}
{"binder": "B8", "values": [{"measurement": "binding result", "setting": "[3]", "result": "binds"}]}
{"binder": "B9", "values": [{"measurement": "binding result", "setting": "[3]", "result": "binds"}]}
{"binder": "B10", "values": [{"measurement": "IL-17A/HFF bioassay IC50; 13. Subclone of (AMH13/AML13)", "setting": "[1]", "result": "> 10", "unit": "nM"}]}
{"binder": "B11", "values": [{"measurement": "binding result", "setting": "[3]", "result": "binds"}]}
{"binder": "B12", "values": [{"measurement": "IL-17A/HFF bioassay IC50; 4. Subclone of (AMH21/AML21)", "setting": "[1]", "result": 2.3, "unit": "nM"}, {"measurement": "IL-17A/HFF bioassay IC50; 5. Subclone of (AMH21/AML21)", "setting": "[1]", "result": 3.1, "unit": "nM"}, {"measurement": "IL-17A/HFF bioassay IC50; 6. Subclone of (AMH21/AML21)", "setting": "[1]", "result": 3.3, "unit": "nM"}]}
{"binder": "B13", "values": [{"measurement": "IL-17A/HFF bioassay IC50; 7. Subclone of (AMH20/AML20)", "setting": "[1]", "result": 8.1, "unit": "nM"}, {"measurement": "IL-17A/HFF bioassay IC50; 8. Subclone of (AMH20/AML20)", "setting": "[1]", "result": 6.6, "unit": "nM"}, {"measurement": "IL-17A/HFF bioassay IC50; 9. Subclone of (AMH20/AML20)", "setting": "[1]", "result": 6.7, "unit": "nM"}]}
